pIC50: −log10 of the molar value. Square brackets hold non-standard residues; d marks the D form. Ends that are not written are not given here. Phe(3-F) = N[C@@H](Cc1cccc(F)c1)C(=O)O; 1Nal = N[C@@H](Cc1cccc2ccccc12)C(=O)O; Cha = N[C@@H](CC1CCCCC1)C(=O)O; Phe(ol) = N[C@H](CO)Cc1ccccc1; Tle = CC(C)(C)[C@H](N)C(=O)O; Nle = CCCC[C@H](N)C(=O)O; Nva = CCC[C@H](N)C(=O)O
Tests used:
[1] = biological target: Cyclin A (Homo sapiens, UniProt P20248); experiment: Cyclin A binding assay, immobilised biotinyl-Ahx-[…]NH2
Experimental: This was added to each well (100 μL). The plate was incubated for 1 h at room temperature with constant shaking. The plate was washed once quickly with TBS/BSA buffer (200 μL), followed by three more washes with TBS/BSA buffer (200 μL) for 5 min each. Serial dilutions of test peptides were prepared in a new plate (50 μL in each well). Cyclin A was diluted to 5 μg/50 μL with TBS/BSA buffer and this was then added to each well (50 μL). The solutions were mixed thoroughly with a pipette (5-6 times), before being incubated for 30 min at room temperature. This reaction mixture was then transferred to the biotinylated peptide: streptavidin-coated plate and incubated for 1 h at room temperature with constant shaking. The plate was washed once quickly with TBS/BSA buffer (200 μL), followed by three more washes with TBS/BSA buffer (200 μL) for 5 min each. The cyclin A antibody (Santa Cruz polyclonal) solution was diluted 1:200 with TBS/BSA buffer and this was then added to each well of the plate (100 μL. The plate was incubated for 1 h at room temperature with constant shaking. The plate was washed once quickly with TBS/BSA buffer (200 μl), followed by three more washes with TBS/BSA buffer (200 μL) for 5 min each. The anti-rabbit secondary antibody (goat anti-rabbit IgG peroxidase conjugate) was diluted 1:10,000 with TBS/BSA and this was then added to each well of the plate (100 μL). The plate was incubated for 1 h at room temperature with constant shaking. The plate was washed once quickly with TBS/BSA buffer (200 μL), followed by three more washes with TBS/BSA buffer (200 μL) for 5 min each. To each well was added the TMB-ELISA reagent (Pierce 1-Step™ Turbo TMB-ELISA; 100 μL) and the plate incubated for 1 min with constant shaking. The reaction was then quenched by the addition of 2 M aqueous H2SO4 (100 μL, each well). The UV absorbance of the each solution was measured spectrophotometrically at 450 nm. IC50 values were calculated from dose-response curves.

[2] = biological target: CDK2/cyclin A (Homo sapiens, UniProt P20248); experiment: CDK2/cyclin A kinase assay, substrate pRb(773-928); type: biochemical; details: for Relative activity Kinase Inhibition: pRb substrate, [ATP] = 100 μM
Text: Reactions were stopped on ice, followed by filtration through p81 filterplates (Whatman Polyfiltronics, Kent, UK).

[3] = Leu157 substitutions, relative to H-His-Ala-Lys-Arg-Arg-Leu-Ile-Phe-NH2 (=1)
[4] = Lys154 substitutions, relative to H-His-Ala-Lys-Arg-Arg-Leu-Ile-Phe-NH2 (=1)
[5] = Arg156 substitutions, relative to H-His-Ala-Lys-Arg-Arg-Leu-Ile-Phe-NH2 (=1)
[6] = Phe159 substitutions, relative to H-His-Ala-Lys-Arg-Arg-Leu-Ile-Phe-NH2 (=1)
[7] = Arg155 substitutions, relative to H-His-Ala-Lys-Arg-Arg-Leu-Ile-Phe-NH2 (=1)
[8] = Ile158 substitutions, relative to H-His-Ala-Lys-Arg-Arg-Leu-Ile-Phe-NH2 (=1)
[9] = Ala153 substitutions, relative to H-His-Ala-Lys-Arg-Arg-Leu-Ile-Phe-NH2 (=1)
[10] = His152 substitutions, relative to H-His-Ala-Lys-Arg-Arg-Leu-Ile-Phe-NH2 (=1)

Sequence of Cyclin A (P20248 whole entry): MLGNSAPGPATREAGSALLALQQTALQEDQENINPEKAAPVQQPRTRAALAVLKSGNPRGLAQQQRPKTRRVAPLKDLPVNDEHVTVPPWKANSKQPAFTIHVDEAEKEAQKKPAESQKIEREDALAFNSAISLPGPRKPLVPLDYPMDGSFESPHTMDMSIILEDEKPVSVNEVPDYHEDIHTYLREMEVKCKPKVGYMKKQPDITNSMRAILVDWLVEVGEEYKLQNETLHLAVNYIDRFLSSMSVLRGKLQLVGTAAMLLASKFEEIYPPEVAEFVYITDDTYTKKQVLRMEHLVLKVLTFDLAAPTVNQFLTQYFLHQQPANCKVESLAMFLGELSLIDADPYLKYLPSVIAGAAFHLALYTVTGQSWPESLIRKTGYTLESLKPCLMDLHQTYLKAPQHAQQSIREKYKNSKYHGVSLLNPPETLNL

H-His-Ala-Lys-Arg-Arg-Nva-Ile Phe-NH2 (H-HAKRR[Nva]IF-NH2; SMILES CCC[C@H](NC(=O)[C@H](CCCNC(=N)N)NC(=O)[C@H](CCCNC(=N)N)NC(=O)[C@H](CCCCN)NC(=O)[C@H](C)NC(=O)[C@@H](N)Cc1c[nH]cn1)C(=O)N[C@H](C(=O)N[C@@H](Cc1ccccc1)C(N)=O)[C@@H](C)CC)
Relative activity Cyclin A Binding [1, 3]: <0.1 | Relative activity Kinase Inhibition [2, 3]: <0.1

H-His-Ala-Ala-Arg-Arg-Leu-Ile Phe-NH2 (H-HAARRLIF-NH2)
Relative activity Cyclin A Binding [1, 4]: 0.5 | Relative activity Kinase Inhibition [2, 4]: <0.1

CC(=O)N[C@@H](CCCN=C(N)N)C(=O)N[C@@H](CCCN=C(N)N)C(=O)N[C@@H](CC(C)C)C(=O)N[C@@H](CC(N)=O)C(=O)N[C@@H](Cc1ccccc1)C(N)=O [compound 378]
pIC50 [1]: 5.09 | pIC50 [2]: 4.43

H-His Ala-Lys-Arg-Pro-Leu-Ile Phe-NH2 (H-HAKRPLIF-NH2)
Relative activity Cyclin A Binding [1, 5]: <0.1 | Relative activity Kinase Inhibition [2, 5]: <0.1

H-His-Ala-Lys-Arg-Arg-Nle-Ile Phe-NH2 (H-HAKRR[Nle]IF-NH2; SMILES CCCC[C@H](NC(=O)[C@H](CCCNC(=N)N)NC(=O)[C@H](CCCNC(=N)N)NC(=O)[C@H](CCCCN)NC(=O)[C@H](C)NC(=O)[C@@H](N)Cc1c[nH]cn1)C(=O)N[C@H](C(=O)N[C@@H](Cc1ccccc1)C(N)=O)[C@@H](C)CC)
Relative activity Cyclin A Binding [1, 3]: <0.1 | Relative activity Kinase Inhibition [2, 3]: <0.1

HAKRRLIL-NH2
Relative activity Cyclin A Binding [1, 6]: <0.1 | Relative activity Kinase Inhibition [2, 6]: 0.3

120 (H-HAKRRLI[Phe(ol)]) [compound 120]
Relative activity Cyclin A Binding ([1]; relative to SEQ ID No. 36 = 1, competitive cyclin A binding, immobilised biotinyl-Ahx-His-Ala-Lys-Arg-Arg-Leu-Ile-Phe-NH2): 1.0 | Relative activity Kinase Inhibition ([2]; relative to H-His-Ala-Lys-Arg-Arg-Leu-Ile-Phe-NH2 (SEQ ID No. 36) = 1, CDK2/cyclin A kinase assay): 0.6

H-His-Ala-Lys-Ala-Arg-Leu-Ile Phe-NH2 (H-HAKARLIF-NH2)
Relative activity Cyclin A Binding [1, 7]: <0.1 | Relative activity Kinase Inhibition [2, 7]: <0.1

H-His-Ala-Arg-Arg-Arg-Leu-Ile Phe-NH2 (H-HARRRLIF-NH2)
Relative activity Cyclin A Binding [1, 4]: 1.5 | Relative activity Kinase Inhibition [2, 4]: 5.7

H-His-Ala-Lys-Arg-Arg-Leu-1Nap-Phe-NH2 (H-HAKRRL[1Nal]F-NH2; SMILES CC(C)C[C@H](NC(=O)[C@H](CCCNC(=N)N)NC(=O)[C@H](CCCNC(=N)N)NC(=O)[C@H](CCCCN)NC(=O)[C@H](C)NC(=O)[C@@H](N)Cc1c[nH]cn1)C(=O)N[C@@H](Cc1cccc2ccccc12)C(=O)N[C@@H](Cc1ccccc1)C(N)=O)
Relative activity Cyclin A Binding [1, 8]: 0.5 | Relative activity Kinase Inhibition [2, 8]: 0.5

H-His-Ala-Lys-Arg-Ala-Leu-Ile Phe-NH2 (H-HAKRALIF-NH2)
Relative activity Cyclin A Binding [1, 5]: <0.1 | Relative activity Kinase Inhibition [2, 5]: <0.1

H-His-Ala-Lys-Arg-Arg-Leu-Ile-mFPhe-NH2 (H-HAKRRLI[Phe(3-F)]-NH2; SMILES CC[C@H](C)[C@H](NC(=O)[C@H](CC(C)C)NC(=O)[C@H](CCCNC(=N)N)NC(=O)[C@H](CCCNC(=N)N)NC(=O)[C@H](CCCCN)NC(=O)[C@H](C)NC(=O)[C@@H](N)Cc1c[nH]cn1)C(=O)N[C@@H](Cc1cccc(F)c1)C(N)=O)
Relative activity Cyclin A Binding [1, 6]: 0.8 | Relative activity Kinase Inhibition [2, 6]: 0.8

H-His-Ala-Lys-Arg-Asn-Leu-Ile Phe-NH2 (H-HAKRNLIF-NH2)
Relative activity Cyclin A Binding [1, 5]: <0.1 | Relative activity Kinase Inhibition [2, 5]: <0.1

H-His-Ala-Lys-Arg-Arg-1Nap-Ile Phe-NH2 (H-HAKRR[1Nal]IF-NH2; SMILES CC[C@H](C)[C@H](NC(=O)[C@H](Cc1cccc2ccccc12)NC(=O)[C@H](CCCNC(=N)N)NC(=O)[C@H](CCCNC(=N)N)NC(=O)[C@H](CCCCN)NC(=O)[C@H](C)NC(=O)[C@@H](N)Cc1c[nH]cn1)C(=O)N[C@@H](Cc1ccccc1)C(N)=O)
Relative activity Cyclin A Binding [1, 3]: <0.1 | Relative activity Kinase Inhibition [2, 3]: <0.1

HAKRRLIY-NH2
Relative activity Cyclin A Binding [1, 6]: 0.2 | Relative activity Kinase Inhibition [2, 6]: 0.3

H-His-Ala-Lys-Arg-Arg-Cha-Ile Phe-NH2 (H-HAKRR[Cha]IF-NH2; SMILES CC[C@H](C)[C@H](NC(=O)[C@H](CC1CCCCC1)NC(=O)[C@H](CCCNC(=N)N)NC(=O)[C@H](CCCNC(=N)N)NC(=O)[C@H](CCCCN)NC(=O)[C@H](C)NC(=O)[C@@H](N)Cc1c[nH]cn1)C(=O)N[C@@H](Cc1ccccc1)C(N)=O)
Relative activity Cyclin A Binding [1, 3]: <0.1 | Relative activity Kinase Inhibition [2, 3]: <0.1

H-His-Phe-Lys-Arg-Arg-Leu-Ile Phe-NH2 (H-HFKRRLIF-NH2)
Relative activity Cyclin A Binding [1, 9]: 0.2 | Relative activity Kinase Inhibition [2, 9]: 0.5

H-Pya-Ala-Lys-Arg-Arg-Leu-Ile Phe-NH2 (XAKRRLIF; N-terminal Pya, C-terminal amide)
Relative activity Cyclin A Binding [1, 10]: 0.2 | Relative activity Kinase Inhibition [2, 10]: <0.1

HAKRRLF-NH2 [H-His-Ala-Lys-Arg-Arg-Leu-Phe-NH2]
Relative activity Cyclin A Binding [1, 8]: <0.1 | Relative activity Kinase Inhibition [2, 8]: <0.1

HAKRRLIW-NH2
Relative activity Cyclin A Binding [1, 6]: 0.1 | Relative activity Kinase Inhibition [2, 6]: 0.3

H-His-Ala-Lys-Gln-Arg-Leu-Ile Phe-NH2 (H-HAKQRLIF-NH2)
Relative activity Cyclin A Binding [1, 7]: <0.1 | Relative activity Kinase Inhibition [2, 7]: <0.1

H-His-Ala-Lys-Arg-Arg-Leu-Nle Phe-NH2 (H-HAKRRL[Nle]F-NH2; SMILES CCCC[C@H](NC(=O)[C@H](CC(C)C)NC(=O)[C@H](CCCNC(=N)N)NC(=O)[C@H](CCCNC(=N)N)NC(=O)[C@H](CCCCN)NC(=O)[C@H](C)NC(=O)[C@@H](N)Cc1c[nH]cn1)C(=O)N[C@@H](Cc1ccccc1)C(N)=O)
Relative activity Cyclin A Binding [1, 8]: 0.3 | Relative activity Kinase Inhibition [2, 8]: 0.4

H-His-Bug-Lys-Arg-Arg-Leu-Ile Phe-NH2 (H-H[Tle]KRRLIF-NH2; SMILES CC[C@H](C)[C@H](NC(=O)[C@H](CC(C)C)NC(=O)[C@H](CCCNC(=N)N)NC(=O)[C@H](CCCNC(=N)N)NC(=O)[C@H](CCCCN)NC(=O)[C@@H](NC(=O)[C@@H](N)Cc1c[nH]cn1)C(C)(C)C)C(=O)N[C@@H](Cc1ccccc1)C(N)=O)
Relative activity Cyclin A Binding [1, 9]: 1.2 | Relative activity Kinase Inhibition [2, 9]: 0.2
